Data from patent US11685791B2, “Antibody binding specifically to N-terminal region of lysyl-tRNA synthetase exposed on cell membrane” (Zymedi Co., Ltd., priority 2017, dated 2023).

What was measured:
A549 cells = assay: Transwell cell migration assay (laminin); format: cell-based, human; details: 100 nM or 500 nM, 24 h, laminin-coated Transwell
Experimental: Cell migration was measured using a 24-well Transwell chamber with polycarbonate membrane (8.0 μm pore size, Costar) as disclosed in the prior art (Park, S. G. et al., Human lysyl-tRNA synthetase is secreted to trigger pro-inflammatory response, Proc. Natl. Acad. Sci. USA 102, 6356-6361 (2005)). In the Transwell chamber, the lower well was coated with 10 μg of laminin (in gelatin) and dried with UV. Thereafter, A549 cells were suspended in serum-free RPIM media, and then placed at a concentration of 1×10^5 cells per well in the upper chamber. The chamber was treated with N3 IgG or human mock IgG (control) at 100 nM or 500 nM, followed by incubation for 24 h. Thereafter, the chamber was washed twice with PBS, and treated with 70% MeOH (in PBS) for 30 min. The chamber was again washed twice with PBS, and treated with Hematoxylin solution for 30 min. The chamber was washed three times with DW, and the membrane in the chamber was cut and mounted on the slide glass.

[1] = tested on: rat KRS N-terminal peptide fragments (rF1-rF5); assay: SPR (Biacore T200) of immobilized N3 IgG against rat KRS N-terminal peptide fragments; format: binding
Experimental: In the same manner as the experimental method described in Example 4-1 above, N3 IgG antibody was immobilized on the chip by using an amine coupling kit (GE Healthcare). Then, the peptides shown in Table 4 above dissolved in PBS solution at corresponding concentrations were allowed to flow for 60 s, and PBS was allowed to flow for 5 min. Then, the binding ability was analyzed by Biacore T200 Evaluation software v2.0 (GE Healthcare).

[2] = tested on: pulmonary arterial hypertension (PAH) models; assay: Blood pressure and cardiac output in monocrotaline PAH model; format: in vivo, rat; details: for CO / LVEDP / LVESP / RVEDP / RVESP: i.v. twice a week, 3 weeks, n = 5
Experimental: After three weeks, the rats were anesthetized with isoflurane, and measured for blood flow and pressure by using a high-precision pneumatic measurement system (MPVS cardiovascular pressure and volume system, model name: MPVS Ultra, manufacturer: Millar Instruments). The right ventricular end-systolic pressure (RVESP), right ventricular end-diastolic pressure, left ventricular end-systolic pressure, left ventricular end-diastolic pressure were measured using an exclusive catheter (Mikro-Tip rat pressure catheter, manufacturer: Millar Instruments). The cardiac output was measured using a perivascular blood flow probe (Transonic Flow probes, manufacturer: Millar Instruments), and experimental method thereof was performed by the same method as disclosed in the following literature: Pacher P, Nagayama T, Mukhopadhyay P, Batkai S, Kass D A. Measurement of cardiac function using pressure-volume conductance catheter technique in mice and rats. Nat Protoc 2008; 3(9):1422-34.
The models of PAH, which is a disease having a close relation between immune cell invasion and pathological phenomena, were treated with N3 IgG antibody (1 mpk or 10 mpk) for 3 weeks (i.v., twice a week), and then measured for right ventricular end-systolic pressure (RVESP), right ventricular end-diastolic pressure (RVEDP), left ventricular end-systolic pressure (LVESP), left ventricular end-diastolic pressure (LVEDP), and cardiac output (CO).

B1: N3 IgG: IgG converted from N3 scFv; VH SEQ ID NO: 49, VL SEQ ID NO: 51; binds KRS N-terminal region (antibody, V domains shown)
VH: EVQLLESGGGLVQPGGSLRLSCAASGFTFSSYDMSWVRQAPGKGLEWVSAISYDNGNTYYADSVKGRFTISRDNSKNTLYLQMNSLRAEDTAVYYSARMALDFDYWGQGTLVTVSS
VL: QSVLTQPPSASGTPGQRVTISCTGSSSNIGSNYVTWYQQLPGTAPKLLIYDNSNRPSGVPDRFSGSKSGTSASLAISGLRSEDEADYYCASWDDSLSAYVFGGGTKLTVL
B1 was tested, and the “inhibition of cell migration” value (A549 cells) was “significantly inhibited”, the “relative binding ability, epitope F3 vs F1 (rat)” value [1] was “stronger binding ability to epitope F3 than F1” and the “binding to rat KRS N-terminal epitopes F1-F5 (SPR)” value ([1]; F2 and F4 data not shown) was “bound to epitopes F1, F2, F3, and F4 of human (h), mouse (m), and rat (r) but not epitope F5”. The “change in RVESP” value ([2]; 1 mpk and 10 mpk, PAH models) was “significantly reduced”, the CO ([2]; MCT + N3 Ab 1 mpk) was 74.0 ± 0.9 mL/min and the LVEDP ([2]; MCT + N3 Ab 1 mpk) was 2.6 ± 1.9 mmHg. For the same molecule, the LVESP ([2]; MCT + N3 Ab 1 mpk) was 95.8 ± 4.8 mmHg, the RVEDP ([2]; MCT + N3 Ab 1 mpk) was 1.4 ± 2.2 mmHg and the RVESP ([2]; MCT + N3 Ab 1 mpk) was 45.0 ± 8.1 mmHg. For the same molecule, the CO ([2]; MCT + N3 Ab 10 mpk) was 59.8 ± 12.9 mL/min, the LVEDP ([2]; MCT + N3 Ab 10 mpk) was 4.6 ± 3.9 mmHg and the LVESP ([2]; MCT + N3 Ab 10 mpk) was 93.4 ± 11.3 mmHg. For the same molecule, the RVEDP ([2]; MCT + N3 Ab 10 mpk) was 3.8 ± 1.3 mmHg, the RVESP ([2]; MCT + N3 Ab 10 mpk) was 41.2 ± 7.7 mmHg and the “change in LVESP” value ([2]; PAH models, antibody administered group) was “significantly increased”.
